Reference: article PMC7496933, “TIM‐3 and CEACAM1 do not interact in cis and in trans” (European Journal of Immunology, 2020)

Target: T1, recombinant human CEACAM1 expressed in the murine myeloma cell line NSO (human, UniProt P13688 35-428)
T1 construct: human CEACAM1, recombinant; also called immobilized CEACAM1; CD66a; source: bought: R&D systems (expressed in NSO cells)
T1 sequence (looked up): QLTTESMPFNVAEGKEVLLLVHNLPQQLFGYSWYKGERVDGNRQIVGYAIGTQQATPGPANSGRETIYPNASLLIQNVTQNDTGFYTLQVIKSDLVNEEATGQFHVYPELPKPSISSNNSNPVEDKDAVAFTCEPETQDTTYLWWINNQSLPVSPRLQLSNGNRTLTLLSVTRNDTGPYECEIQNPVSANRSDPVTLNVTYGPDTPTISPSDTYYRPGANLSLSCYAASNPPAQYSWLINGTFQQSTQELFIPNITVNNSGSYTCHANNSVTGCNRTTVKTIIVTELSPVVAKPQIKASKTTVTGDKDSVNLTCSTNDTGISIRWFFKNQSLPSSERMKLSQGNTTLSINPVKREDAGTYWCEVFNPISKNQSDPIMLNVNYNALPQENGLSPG
Experiment: ELISA; Gal‐9 or CEACAM1 immobilized overnight at 4°C on Maxisorp plates (coating 0.5 μg/mL); Ig fusion proteins added in PBS‐0.5% BSA, 1 h at room temperature; detected with HRP‐labeled goat‐anti‐human IgG (Fc‐specific), ABTS, OD 405 nm
Settings: both partners purified

binding result: binds
B1: fusion protein representing the extracellular domain of CEACAM1 (CEACAM1‐Ig) (Fc fusion, human, UniProt P13688 35-428, looked up)
chain: QLTTESMPFNVAEGKEVLLLVHNLPQQLFGYSWYKGERVDGNRQIVGYAIGTQQATPGPANSGRETIYPNASLLIQNVTQNDTGFYTLQVIKSDLVNEEATGQFHVYPELPKPSISSNNSNPVEDKDAVAFTCEPETQDTTYLWWINNQSLPVSPRLQLSNGNRTLTLLSVTRNDTGPYECEIQNPVSANRSDPVTLNVTYGPDTPTISPSDTYYRPGANLSLSCYAASNPPAQYSWLINGTFQQSTQELFIPNITVNNSGSYTCHANNSVTGCNRTTVKTIIVTELSPVVAKPQIKASKTTVTGDKDSVNLTCSTNDTGISIRWFFKNQSLPSSERMKLSQGNTTLSINPVKREDAGTYWCEVFNPISKNQSDPIMLNVNYNALPQENGLSPG
notes: CEACAM1 (CD66a), extracellular domain; also called CEACAM1 Ig fusion protein; source: bought: SinoBiological
